Consider two molecules from patent US20250019435A1 (ALBERT EINSTEIN COLLEGE OF MEDICINE, published 2025).

One test concerns the target T1, SHP-2 (human, UniProt Q06124 2-593).
T1 sequence (looked up): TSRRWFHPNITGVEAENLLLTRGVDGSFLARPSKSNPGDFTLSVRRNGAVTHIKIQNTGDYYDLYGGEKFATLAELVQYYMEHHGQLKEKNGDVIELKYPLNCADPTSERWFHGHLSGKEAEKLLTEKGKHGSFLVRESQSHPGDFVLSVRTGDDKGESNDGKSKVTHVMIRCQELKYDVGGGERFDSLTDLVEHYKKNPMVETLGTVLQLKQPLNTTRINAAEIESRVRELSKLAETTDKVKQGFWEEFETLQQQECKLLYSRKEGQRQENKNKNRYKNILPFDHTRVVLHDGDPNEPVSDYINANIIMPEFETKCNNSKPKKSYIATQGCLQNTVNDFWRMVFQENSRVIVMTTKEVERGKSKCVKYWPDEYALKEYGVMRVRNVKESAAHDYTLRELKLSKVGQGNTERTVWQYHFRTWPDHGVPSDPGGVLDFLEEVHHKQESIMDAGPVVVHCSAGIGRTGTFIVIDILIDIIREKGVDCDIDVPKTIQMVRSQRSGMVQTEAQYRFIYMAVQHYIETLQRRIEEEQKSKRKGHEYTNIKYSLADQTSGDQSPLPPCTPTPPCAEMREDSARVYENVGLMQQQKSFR
The test can be described thus: co-immunoprecipitation with anti-KIR2DL5 from transduced primary NK cells with or without pervanadate, immunoblot. As to the method: (§1) FIG. 12A-12E: KIR2DL5 ITIM and ITSM mediated NK cell inhibition and suppressed downstream signaling. (A) Tyrosine (Y) in ITIM and ITSM of KIR2DL5 was mutated to phenylalanine (F). The KIR2DL5⁻ primary NK cells were transduced with WT KIR2DL5 or the indicated mutants, and then examined for protein expression with F8B30 (open) or mIgG1 (shaded). NC, negative control. Data are representative of 2 independent experiments. (B and C) Transduced primary NK cells were treated with (+) or without (−) pervanadate (VO₄) for 5 minutes. Cell lysates were immunoprecipitated with anti-KIR2DL5 antibodies. Phospho-tyrosine (4G10), SHP-1, SHP-2, and total KIR2DL5 were detected by immunoblots (B). Quantification of p-Tyr, SHP-1, and SHP-2 association with WT or mutant KIR2DL5 in VO₄-treated NK cells (C). WCL, whole-cell lysates. (D) Representative imaging of cell conjugates acquired upon the indicated transduced primary NK and PVR/Raji cell contact followed by staining with anti-KIR2DL5 mAb and DAPI. Scale bars: […]. (E) Lysis of scramble control or PVR^KO A427 (top) and Jurkat (bottom) by WT or mutant KIR2DL5-transduced primary NK cells at the indicated E/T ratios. Data are mean for duplicate measurements and representative of 3 independent experiments with 3 different donors. In A, and B, data are representative of 3 independent experiments. *P<0.05, **P<0.01, ***P<0.001, ****P<0.0001, by 1-way ANOVA (C), or paired Student's t test (D).
(§2) Coimmunoprecipitation and immunoblotting. NK92 cells or primary NK cells pretreated with or without 1 mM pervanadate (New England BioLabs) were lysed in Pierce immunoprecipitation lysis buffer supplemented with protease and phosphatase inhibitor cocktail (Thermo Fisher Scientific). Proteins from whole-cell lysis were further incubated with anti-KIR2DL5 antibodies and Dynabeads protein G (Thermo Fisher Scientific) for further immunoprecipitation. […]

The target of the next test is SHP-1 (human, UniProt P29350 1-595). The test is described as above. As to the method: as §1, §2
Chain of SHP-1 (P29350 whole entry): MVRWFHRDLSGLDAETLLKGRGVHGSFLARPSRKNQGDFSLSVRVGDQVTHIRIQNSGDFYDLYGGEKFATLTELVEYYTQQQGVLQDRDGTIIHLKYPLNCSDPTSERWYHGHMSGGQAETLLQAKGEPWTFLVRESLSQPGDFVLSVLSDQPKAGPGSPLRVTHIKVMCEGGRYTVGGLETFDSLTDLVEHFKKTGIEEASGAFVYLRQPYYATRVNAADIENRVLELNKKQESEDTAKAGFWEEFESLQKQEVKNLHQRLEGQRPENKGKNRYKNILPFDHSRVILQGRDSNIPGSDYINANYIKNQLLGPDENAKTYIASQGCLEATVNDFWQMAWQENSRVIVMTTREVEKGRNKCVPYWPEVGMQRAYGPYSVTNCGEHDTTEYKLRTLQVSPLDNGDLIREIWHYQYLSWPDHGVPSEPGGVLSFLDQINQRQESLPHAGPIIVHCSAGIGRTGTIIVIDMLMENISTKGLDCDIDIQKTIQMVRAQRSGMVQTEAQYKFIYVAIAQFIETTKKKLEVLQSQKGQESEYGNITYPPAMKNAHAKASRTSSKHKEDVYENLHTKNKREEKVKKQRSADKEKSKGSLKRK
In test [1] the target is T2, PVR expressed on transduced cells (PVR-YFP) (UniProt P15151 21-417).
T2 construct: whole, on cells; On NIH 3T3 or Raji cells; also called PVR/3T3; PVR-YFP/3T3; not shown: YFP ('PVR-YFP ... fusion protein')
T2 sequence (looked up): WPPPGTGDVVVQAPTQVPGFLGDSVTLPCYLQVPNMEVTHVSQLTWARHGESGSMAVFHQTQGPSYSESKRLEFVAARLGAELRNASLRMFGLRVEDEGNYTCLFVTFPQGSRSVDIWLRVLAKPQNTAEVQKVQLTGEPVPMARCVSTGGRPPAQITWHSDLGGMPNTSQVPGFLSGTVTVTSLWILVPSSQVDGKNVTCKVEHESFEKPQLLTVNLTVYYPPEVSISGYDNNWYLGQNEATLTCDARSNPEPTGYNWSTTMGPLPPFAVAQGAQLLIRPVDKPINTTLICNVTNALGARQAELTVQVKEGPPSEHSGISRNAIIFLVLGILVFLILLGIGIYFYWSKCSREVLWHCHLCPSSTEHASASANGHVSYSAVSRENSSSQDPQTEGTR
Kind of test: confocal imaging of conjugates of transduced primary NK cells with PVR-YFP/Raji cells. As to the method: as §1, with “The” for “FIG. 12A-12E: KIR2DL5 ITIM and ITSM mediated NK cell inhibition and suppressed downstream signaling. (A) Tyrosine (Y) in ITIM and ITSM of KIR2DL5 was mutated to phenylalanine (F). The”
NK-Raji conjugation assay. […] Cell mixtures were then loaded onto poly-L-lysine-precoated slides and fixed with 4% formaldehyde at RT for 15 minutes. After blocking with 5% normal goat serum at RT for 1 hour, cells were stained with 20 µg/mL anti-KIR2DL5 antibodies (a mixture of 8 homemade clones) at 4° C. overnight and then with goat anti-mIgG (H+L) Alexa Flour 647 (Invitrogen) at RT for 2 hours. The cells were permeabilized by 0.1% Triton X-100 at RT for 15 minutes and stained with Alexa Flour Plus 405 Phalloidin (Life Technologies) for 1 hour at RT. The slides were then mounted by Gold Antifade Mountant without DAPI (Life Technologies). The mean pixel intensity of synapse and non-synapse was respectively measured and statistically analyzed. Images were acquired by Leica SP8 confocal microscope and processed by ImageJ (NIH).

Test [2] has as its target T2, PVR expressed on transduced cells …. Kind of test: flow cytometry, PVR/3T3 cells preincubated with DNAM-1-His, then KIR2DL5-Ig.

B1: Y298F/Y328F (receptor)
receptor chain: HEGGQDKPLLSAWPSAVVPRGGHVTLLCRSRLGFTIFSLYKEDGVPVPELYNKIFWKSILMGPVTPAHAGTYRCRGSHPRSPIEWSAPSNPLVIVVTGLFGKPSLSAQPGPTVRTGENVTLSCSSRSSFDMYHLSREGRAHEPRLPAVPSVNGTFQADFPLGPATHGGTYTCFGSLHDSPYEWSDPSDPLLVSVTGNSSSSSSSPTEPSSKTGIRRHLHILIGTSVAIILFIILFFFLLHCCCSNKKNAAVMDQEPAGDRTVNREDSDDQDPQEVTFAQLDHCVFTQTKITSPSQRPKTPPTDTTMFMELPNAKPRSLSPAHKHHSQALRGSSRETTALSQNRVASSHVPAAGI
notes: also called KIR2DL5 Y298F/Y328F (ITIM and ITSM mutant) on transduced primary NK cells
Turning to B1, the figures for the binding result (with SHP-2; with SHP-1; in test [1]) were “no binding”, “no binding” and “binds”, respectively.

B2: recombinant human DNAM-1-His tag protein (receptor, UniProt Q15762 19-247, looked up)
chain: EEVLWHTSVPFAENMSLECVYPSMGILTQVEWFKIGTQQDSIAIFSPTHGMVIRKPYAERVYFLNSTMASNNMTLFFRNASEDDVGYYSCSLYTYPQGTWQKVIQVVQSDSFEAAVPSNSHIVSEPGKNVTLTCQPQMTWPVQAVRWEKIQPRQIDLLTYCNLVHGRNFTSKFPRQIVSNCSHGRWSVIVIPDVTVSDSGLYRCYLQASAGENETFVMRLTVAEGKTDN
notes: Bought; also called CD226-His; not shown: His tag
With B2, in test [2], the binding result is reported as “binds”.
